Reference: the supplement of paper PMC9112550, “Optimization of the antimicrobial peptide Bac7 by deep mutational scanning” (BMC Biology, 2022)

Test system: Escherichia coli TOP10
Assay: shrunken log2 fold change of peptide-encoding DNA abundance (4.5 h post-induction vs induction); higher = less antimicrobial activity (less host growth inhibition)
Conditions: time post-induction: 4.5 h; library: site-saturation at positions 5, 18, 19, 20
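Further: peptides expressed intracellularly from a pBAD plasmid library in pooled LB shake-flask culture, induced with 0.3% L-arabinose, DNA abundance read by NGS, three biological replicates, DESeq2 with apeglm shrinkage.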

## RRIRLRPPRLPRPRPRPTGPPRP
  shrunken log2 fold change: 0.298

## RRIRARPPRLPRPRPRPREPPRP
  shrunken log2 fold change: 0.199

## RRIRWRPPRLPRPRPRPCSEPRP
  shrunken log2 fold change: -0.206

## RRIRMRPPRLPRPRPRPNFKPRP
  shrunken log2 fold change: -0.0166

## RRIRPRPPRLPRPRPRPAMYPRP
  shrunken log2 fold change: 0.0514

## RRIRSRPPRLPRPRPRPEQVPRP
  shrunken log2 fold change: 0.243

## RRIRWRPPRLPRPRPRPPLAPRP
  shrunken log2 fold change: 1.63

## RRIRQRPPRLPRPRPRPPFWPRP
  shrunken log2 fold change: 0.504

## RRIRGRPPRLPRPRPRPTRNPRP
  shrunken log2 fold change: 1.61

## RRIRPRPPRLPRPRPRPFKRPRP
  shrunken log2 fold change: -0.00475

## RRIRQRPPRLPRPRPRPTDKPRP
  shrunken log2 fold change: -0.112

## RRIRRRPPRLPRPRPRPHKWPRP
  shrunken log2 fold change: 2.57

## RRIRTRPPRLPRPRPRPPAKPRP
  shrunken log2 fold change: 1.11

## RRIRYRPPRLPRPRPRPFVDPRP
  shrunken log2 fold change: -0.0498

## RRIRKRPPRLPRPRPRPCTMPRP
  shrunken log2 fold change: -0.271

## RRIRSRPPRLPRPRPRPDELPRP
  shrunken log2 fold change: -0.0328

## RRIRIRPPRLPRPRPRPMMPPRP
  shrunken log2 fold change: -0.238

## RRIRPRPPRLPRPRPRPEHYPRP
  shrunken log2 fold change: -0.106

## RRIRNRPPRLPRPRPRPYFCPRP
  shrunken log2 fold change: -0.5

## RRIRYRPPRLPRPRPRPWMGPRP
  shrunken log2 fold change: -0.294

## RRIRWRPPRLPRPRPRPTCRPRP
  shrunken log2 fold change: 0.0452

## RRIRWRPPRLPRPRPRPWKEPRP
  shrunken log2 fold change: 0.162

## RRIRDRPPRLPRPRPRPKLTPRP
  shrunken log2 fold change: -0.0121

## RRIRYRPPRLPRPRPRPAGKPRP
  shrunken log2 fold change: -0.237

## RRIRCRPPRLPRPRPRPNHMPRP
  shrunken log2 fold change: -0.255

## RRIRHRPPRLPRPRPRPMGSPRP
  shrunken log2 fold change: -0.0537

## RRIRMRPPRLPRPRPRPQWSPRP
  shrunken log2 fold change: 0.0117

## RRIRARPPRLPRPRPRPDNQPRP
  shrunken log2 fold change: 0.0635

## RRIRIRPPRLPRPRPRPWKFPRP
  shrunken log2 fold change: -0.158

## RRIRHRPPRLPRPRPRPPQYPRP
  shrunken log2 fold change: -0.154

## RRIRHRPPRLPRPRPRPPSRPRP
  shrunken log2 fold change: 0.17

## RRIRHRPPRLPRPRPRPNICPRP
  shrunken log2 fold change: -0.925

## RRIRMRPPRLPRPRPRPSWYPRP
  shrunken log2 fold change: -0.506

## RRIRVRPPRLPRPRPRPRTNPRP
  shrunken log2 fold change: -0.42

## RRIRNRPPRLPRPRPRPVVYPRP
  shrunken log2 fold change: -0.228

## RRIRGRPPRLPRPRPRPYCFPRP
  shrunken log2 fold change: 0.0329

## RRIRERPPRLPRPRPRPKTNPRP
  shrunken log2 fold change: -0.293

## RRIRNRPPRLPRPRPRPKDTPRP
  shrunken log2 fold change: -0.018

## RRIRERPPRLPRPRPRPWANPRP
  shrunken log2 fold change: -0.0497

## RRIRVRPPRLPRPRPRPPTQPRP
  shrunken log2 fold change: 0.273

## RRIRGRPPRLPRPRPRPFYMPRP
  shrunken log2 fold change: -0.0339

## RRIRYRPPRLPRPRPRPLIEPRP
  shrunken log2 fold change: -0.442

## RRIRDRPPRLPRPRPRPVQSPRP
  shrunken log2 fold change: -0.0116

## RRIRFRPPRLPRPRPRPNRLPRP
  shrunken log2 fold change: -0.121

## RRIRVRPPRLPRPRPRPVWSPRP
  shrunken log2 fold change: 0.754

## RRIRRRPPRLPRPRPRPNCGPRP
  shrunken log2 fold change: 0.315

## RRIRYRPPRLPRPRPRPDEHPRP
  shrunken log2 fold change: -0.0204

## RRIRMRPPRLPRPRPRPQNSPRP
  shrunken log2 fold change: -0.0933

## RRIRRRPPRLPRPRPRPPQPPRP
  shrunken log2 fold change: 1.26

## RRIRPRPPRLPRPRPRPVKPPRP
  shrunken log2 fold change: -0.14

## RRIRARPPRLPRPRPRPWVFPRP
  shrunken log2 fold change: 0.276

## RRIRSRPPRLPRPRPRPMNMPRP
  shrunken log2 fold change: -0.118

## RRIRIRPPRLPRPRPRPKMYPRP
  shrunken log2 fold change: -0.25

## RRIRRRPPRLPRPRPRPATLPRP
  shrunken log2 fold change: 0.332

## RRIRMRPPRLPRPRPRPSNVPRP
  shrunken log2 fold change: -0.259

## RRIRCRPPRLPRPRPRPDGQPRP
  shrunken log2 fold change: 0.101

## RRIRERPPRLPRPRPRPGDFPRP
  shrunken log2 fold change: -0.107

## RRIRMRPPRLPRPRPRPFGRPRP
  shrunken log2 fold change: -0.00674

## RRIRRRPPRLPRPRPRPNEQPRP
  shrunken log2 fold change: 0.324

## RRIRSRPPRLPRPRPRPENTPRP
  shrunken log2 fold change: -0.258

## RRIRVRPPRLPRPRPRPETRPRP
  shrunken log2 fold change: 0.577

## RRIRHRPPRLPRPRPRPPSIPRP
  shrunken log2 fold change: -0.165

## RRIRRRPPRLPRPRPRPIRQPRP
  shrunken log2 fold change: 0.00198

## RRIRPRPPRLPRPRPRPEMRPRP
  shrunken log2 fold change: 0.329

## RRIRHRPPRLPRPRPRPKDKPRP
  shrunken log2 fold change: -0.23

## RRIRTRPPRLPRPRPRPVDMPRP
  shrunken log2 fold change: -0.238

## RRIRVRPPRLPRPRPRPRQNPRP
  shrunken log2 fold change: 0.00342

## RRIRMRPPRLPRPRPRPCPWPRP
  shrunken log2 fold change: 0.0763

## RRIRIRPPRLPRPRPRPWTSPRP
  shrunken log2 fold change: -0.171

## RRIRHRPPRLPRPRPRPWSEPRP
  shrunken log2 fold change: 0.00408

## RRIRRRPPRLPRPRPRPFYGPRP
  shrunken log2 fold change: -0.0114

## RRIRDRPPRLPRPRPRPCVIPRP
  shrunken log2 fold change: 0.1

## RRIRWRPPRLPRPRPRPAHAPRP
  shrunken log2 fold change: 0.191

## RRIRKRPPRLPRPRPRPYTQPRP
  shrunken log2 fold change: -0.0811

## RRIRERPPRLPRPRPRPTHIPRP
  shrunken log2 fold change: -0.924

## RRIRYRPPRLPRPRPRPPPKPRP
  shrunken log2 fold change: 1.24

## RRIRPRPPRLPRPRPRPTYHPRP
  shrunken log2 fold change: -0.274

## RRIRGRPPRLPRPRPRPLWGPRP
  shrunken log2 fold change: 0.583

## RRIRHRPPRLPRPRPRPQSWPRP
  shrunken log2 fold change: 0.0657

## RRIRKRPPRLPRPRPRPCGMPRP
  shrunken log2 fold change: 0.858

## RRIRCRPPRLPRPRPRPDFKPRP
  shrunken log2 fold change: -0.219

## RRIRRRPPRLPRPRPRPKSSPRP
  shrunken log2 fold change: -0.00897

## RRIRCRPPRLPRPRPRPWSFPRP
  shrunken log2 fold change: -0.0435

## RRIRKRPPRLPRPRPRPHYAPRP
  shrunken log2 fold change: -0.0144

## RRIRSRPPRLPRPRPRPWEMPRP
  shrunken log2 fold change: -0.00146

## RRIRWRPPRLPRPRPRPYWYPRP
  shrunken log2 fold change: -1.33

## RRIRKRPPRLPRPRPRPAGKPRP
  shrunken log2 fold change: 0.582

## RRIRCRPPRLPRPRPRPEDDPRP
  shrunken log2 fold change: 0.159

## RRIRIRPPRLPRPRPRPQHFPRP
  shrunken log2 fold change: -0.109

## RRIRARPPRLPRPRPRPKPRPRP
  shrunken log2 fold change: 1.9

## RRIRFRPPRLPRPRPRPYCMPRP
  shrunken log2 fold change: -0.929

## RRIRWRPPRLPRPRPRPWYSPRP
  shrunken log2 fold change: -0.534

## RRIRCRPPRLPRPRPRPRLCPRP
  shrunken log2 fold change: 0.427

## RRIRTRPPRLPRPRPRPDNWPRP
  shrunken log2 fold change: -0.244

## RRIRHRPPRLPRPRPRPHMDPRP
  shrunken log2 fold change: -0.162

## RRIRSRPPRLPRPRPRPLISPRP
  shrunken log2 fold change: -0.173

## RRIRQRPPRLPRPRPRPLDWPRP
  shrunken log2 fold change: 0.099

## RRIRHRPPRLPRPRPRPMAVPRP
  shrunken log2 fold change: 0.159

## RRIRERPPRLPRPRPRPAKVPRP
  shrunken log2 fold change: -0.182

## RRIRNRPPRLPRPRPRPWVKPRP
  shrunken log2 fold change: -0.0802

## RRIRERPPRLPRPRPRPMCEPRP
  shrunken log2 fold change: 0.0303

## RRIRRRPPRLPRPRPRPRAYPRP
  shrunken log2 fold change: -0.0105

## RRIRWRPPRLPRPRPRPWTIPRP
  shrunken log2 fold change: -0.0951

## RRIRPRPPRLPRPRPRPQHAPRP
  shrunken log2 fold change: 0.041

## RRIRARPPRLPRPRPRPCMGPRP
  shrunken log2 fold change: 0.00996

## RRIRVRPPRLPRPRPRPMPKPRP
  shrunken log2 fold change: 0.0271

## RRIRGRPPRLPRPRPRPCHSPRP
  shrunken log2 fold change: 0.0222

## RRIRWRPPRLPRPRPRPPKIPRP
  shrunken log2 fold change: 0.22

## RRIRGRPPRLPRPRPRPGGSPRP
  shrunken log2 fold change: 0.92

## RRIRKRPPRLPRPRPRPDRQPRP
  shrunken log2 fold change: 0.204

## RRIRWRPPRLPRPRPRPRLYPRP
  shrunken log2 fold change: 0.245

## RRIRSRPPRLPRPRPRPIEAPRP
  shrunken log2 fold change: 0.137

## RRIRARPPRLPRPRPRPTFLPRP
  shrunken log2 fold change: 0.113

## RRIRIRPPRLPRPRPRPAGFPRP
  shrunken log2 fold change: 0.0153

## RRIRVRPPRLPRPRPRPCLMPRP
  shrunken log2 fold change: -0.178

## RRIRQRPPRLPRPRPRPENAPRP
  shrunken log2 fold change: 0.242

## RRIRRRPPRLPRPRPRPHGTPRP
  shrunken log2 fold change: 0.00291

## RRIRHRPPRLPRPRPRPGPWPRP
  shrunken log2 fold change: 0.166

## RRIRDRPPRLPRPRPRPATVPRP
  shrunken log2 fold change: -0.0689

## RRIRLRPPRLPRPRPRPYDYPRP
  shrunken log2 fold change: -0.0244

## RRIRVRPPRLPRPRPRPSVFPRP
  shrunken log2 fold change: -0.126

## RRIRFRPPRLPRPRPRPKIWPRP
  shrunken log2 fold change: 0.106

## RRIRVRPPRLPRPRPRPQNEPRP
  shrunken log2 fold change: -0.303

## RRIRYRPPRLPRPRPRPSNDPRP
  shrunken log2 fold change: -0.29

## RRIRVRPPRLPRPRPRPSGFPRP
  shrunken log2 fold change: -0.131

## RRIRPRPPRLPRPRPRPSRGPRP
  shrunken log2 fold change: 0.839

## RRIRVRPPRLPRPRPRPSKFPRP
  shrunken log2 fold change: -0.579

## RRIRFRPPRLPRPRPRPGNKPRP
  shrunken log2 fold change: -0.344

## RRIRARPPRLPRPRPRPEHGPRP
  shrunken log2 fold change: 0.0464

## RRIRNRPPRLPRPRPRPFASPRP
  shrunken log2 fold change: -0.0512

## RRIRIRPPRLPRPRPRPIAIPRP
  shrunken log2 fold change: -0.257

## RRIRCRPPRLPRPRPRPSWQPRP
  shrunken log2 fold change: -0.0872

## RRIRGRPPRLPRPRPRPPLKPRP
  shrunken log2 fold change: 1.03

## RRIRQRPPRLPRPRPRPPICPRP
  shrunken log2 fold change: 0.0388

## RRIRGRPPRLPRPRPRPVEFPRP
  shrunken log2 fold change: 0.596

## RRIRKRPPRLPRPRPRPAAIPRP
  shrunken log2 fold change: 0.255

## RRIRGRPPRLPRPRPRPRYEPRP
  shrunken log2 fold change: 0.409

## RRIRKRPPRLPRPRPRPQINPRP
  shrunken log2 fold change: -0.159

## RRIRIRPPRLPRPRPRPQFHPRP
  shrunken log2 fold change: -1.12

## RRIRMRPPRLPRPRPRPDDGPRP
  shrunken log2 fold change: 0.038

## RRIRYRPPRLPRPRPRPFQSPRP
  shrunken log2 fold change: -0.0418

## RRIRHRPPRLPRPRPRPCADPRP
  shrunken log2 fold change: -0.12

## RRIRRRPPRLPRPRPRPPWVPRP
  shrunken log2 fold change: 0.535

## RRIRFRPPRLPRPRPRPKTGPRP
  shrunken log2 fold change: 0.072

## RRIRDRPPRLPRPRPRPYAGPRP
  shrunken log2 fold change: 0.0325

## RRIRMRPPRLPRPRPRPDDLPRP
  shrunken log2 fold change: 2.58

## RRIRPRPPRLPRPRPRPSRQPRP
  shrunken log2 fold change: 0.357

## RRIRVRPPRLPRPRPRPLCDPRP
  shrunken log2 fold change: -0.108

## RRIRDRPPRLPRPRPRPQAHPRP
  shrunken log2 fold change: 0.0994

## RRIRERPPRLPRPRPRPQRHPRP
  shrunken log2 fold change: 1.63
